Source: patent US9644205B2, “Synthetic promoter for modulating gene expression” (The Regents of the University of California, priority 2012, dated 2017)

Assays:
[1] = system: PDX-1 stably expressing PC and HEK cells; assay: CAT and mCherry reporter assays in PDX-1+ PC and HEK293 cell lines; assay type: cell-based, human
Description: (§1) In our methodological approach, activity and specificity of BLs were determined by CAT and mCherry assays in PDX-1+PC and HEK293 cell lines vs PDX-1—human pancreatic ductal epithelial (HPDE) cells. […] Cytotoxicity was determined by MTS assay. 1M PANC-1 cells were injected ip into 65 SCID mice; two weeks later, mice received BL1-vTK, RIP-vTK, CMV-vTK, or pVAX1 empty vector control (35 ug liposomal DNA/mouse/tail vein followed by two weeks of GCV (40 mg/kg, ip, bid; N=15/group). Glucose levels were measured on days 14 and 60 after treatment. Tumor volume was measured in each mouse. Statistical analysis was performed via paired T test; p<0.05=significant.

Beta TC-6 cells = assay: CAT assay for promoter activity in Beta TC-6 cells; assay type: cell-based, mouse; conditions: compared to human insulin promoter fragments
Description: FIG. 2 is a plot of the CAT assay for HIP activity in Beta TC-6 cells.
FIG. 3 is a plot of the CAT assay for HIP promoter construct expression activity BL promoter construct expression activity in Beta TC-6 cells.
as §1

MIA PaCa2 = assay: relative CAT expression in MIA PaCa2 vs MIA PaCa2 PDX-1 cells; assay type: cell-based, human; conditions: MIA PaCa2 (very low PDX-1) vs MIA PaCa2 stably transfected with PDX-1; compared to RIP and three HIP fragments
From the text: FIG. 5 is a plot of the assay of the relative CAT expression being driven by BL-1 promoter compared to RIP and three HIP fragments in human pancreas cancer cell line, MIA PaCa2, which have very low PDX-1 expression vs MIA PaCa2 cells stably transfected with PDX-1.

PANC-1 = assay: relative CAT expression in PANC-1 cells; assay type: cell-based, human; conditions: PANC-1 (high PDX-1); compared to RIP and HIP 1400
Description: FIG. 4 is a plot of the assay of the relative CAT expression being driven by BL-1 promoter compared to RIP and HIP 1400 promoter constructs in human pancreas cancer cell line, PANC-1, which have high expression of PDX-1, and benign human pancreatic ductal epithelial cell line HPDE, which have no expression of PDX-1 and are a negative control cell line.
as §1

HPDE cells = assay: CAT expression in HPDE cells (PDX-1 negative, PDX-1 co-transfection dose curve); assay type: cell-based, human
Description: FIG. 7 is a plot of the assay of the BL-CAT driving CAT expression in response to increasing doses of PDX-1 in human pancreatic ductal epithelial cells, which have very low expression of PDX-1.
FIG. 8 is a plot of another assay of the BL-CAT driving CAT expression in response to increasing doses of PDX-1 in human pancreatic ductal epithelial cells, which have very low expression of PDX-1.
as §1

[2] = system: human embryonic kidney cell line 293 stably transfected with PDX-1 or mutated PDX-1 P47D; assay: relative CAT expression in 293 PDX-1 vs 293 P47D cells; assay type: cell-based; conditions: 293 stably transfected with PDX-1 or PDX-1 P47D; compared to RIP and three HIP fragments
From the text: FIG. 6 is a plot of the assay of the relative CAT expression being driven by BL-1 promoter compared to RIP and three HIP fragments in human embryonic kidney cell line 293, (which have no PDX-1 expression), stably transfected with PDX-1 or mutated PDX-1 P47D.

B1: BL-1: synthetic 550 bp promoter, SEQ ID NO: 1; three repeated C2/E2/G2/A3/CRE1 and three repeated GG2/A2/C1/E1/A1 motifs (nucleic acid)
DNA: GACAGCAGCGCAAAGAGCCCCGCCCTGCAGCCTCCAGCTCTCCTGGTCTAATGTGGAAAGTGGCCCAGGTGAGGGCTTTGCTCTCCTGGAGACATTTGCCCCCAGCTGTGAGCAGGGACAGGTCTGGCCACCGGGCCCCTGGTTAAGACTCTAATGACCCGCTGGTCCCAGGGACAGGTCTGGCCACCGGGCCCCTGGTTAAGACTCTAATGACCCGCTGGTCCCAGGGACAGGTCTGGCCACCGGGCCCCTGGTTAAGACTCTAATGACCCGCTGGTCCGGAAATGGTCCGGAAATTGCAGCCTCAGCCCCCAGCCATCTGCCGACCCCCCCACCCCAGGCCCTAATGGGCGGAAATGGTCCGGAAATTGCAGCCTCAGCCCCCAGCCATCTGCCGACCCCCCCACCCCAGGCCCTAATGGGCGGAAATGGTCCGGAAATTGCAGCCTCAGCCCCCAGCCATCTGCCGACCCCCCCACCCCAGGCCCTAATGGGCGGTAGGGGAGATGGGCTCTGAGACTATAAAGCCAGCGGGGGCCCAGCAGCCCTC
Question: Which results are given for B1?
Answer: activity of expressing reporter genes ([1]; among the BL promoters, CAT and mCherry assays): highest activity; CAT and mCherry reporter expression ([1]; vs CMV-driven expression): equal to CMV-driven expression; CAT and mCherry reporter expression ([1]; vs RIP-driven expression, p<0.05): significantly greater than RIP-driven expression; expression of CAT (Beta TC-6 cells): equal to or better than human insulin promoter fragments; relative CAT expression (MIA PaCa2): more effective than RIP or HIP; relative CAT expression (PANC-1): to a far greater degree than HIP and RIP; CAT expression in response to increasing doses of PDX-1 (HPDE cells; HPDE cells, co-transfection of PDX-1): dose dependent manner; CAT expression (HPDE cells; PDX-1-negative cell lines): No CAT expression was detected; relative CAT expression [2]: far more effective than RIP or HIP
